B1: wild-type UCHL1 (UCHL1^WT), C-terminal 6-His tag (protein)
chain: MQLKPMEINPEMLNKVLSRLGVAGQWRFVDVLGLEEESLGSVPAPACALLLLFPLTAQHENFRKKQIEELKGQEVSPKVYFMKQTIGNSCGTIGLIHAVANNQDKLGFEDGSVLKQFLSETEKMSPEDRAKCFEKNEAIQAAHDAVAQEGQCRVDDKVNFHFILFNNVDGHLYELDGRMPFPVNHGASSEDTLLKDAAKVCREFTEREQGEVRFSAVALCHHHHHH
B2: wild-type UCHL5 (UCHL5^WT), C-terminal 6-His tag (protein)
chain: MTGNAGEWCLMESDPGVFTELIKGFGCRGAQVEEIWSLEPENFEKLKPVHGLIFLFKWQPGEEPAGSVVQDSRLDTIFFAKQVINNACATQAIVSVLLNCTHQDVHLGETLSEFKEFSQSFDAAMKGLALSNSDVIRQVHNSFARQQMFEFDTKTSAKEEDAFHFVSYVPVNGRLYELDGLREGPIDLGACNQDDWISAVRPVIEKRIQKYSEGEIRFNLMAIVSDRKMIYEQKIAELQRQLAEEEPMDTDQGNSMLSAIQSEVAKNQMLIEEEVQKLKRYKIENIRRKHNYLPFIMELLKTLAEHQQLIPLVEKAKEKQNAKKAQETKHHHHHH

Target: Ub vinyl sulfone HA-tagged probe (Ub-VS-HA; Cat #U-212, Boston Biochem), P0CG48
Sequence (P0CG48 whole entry, looked up): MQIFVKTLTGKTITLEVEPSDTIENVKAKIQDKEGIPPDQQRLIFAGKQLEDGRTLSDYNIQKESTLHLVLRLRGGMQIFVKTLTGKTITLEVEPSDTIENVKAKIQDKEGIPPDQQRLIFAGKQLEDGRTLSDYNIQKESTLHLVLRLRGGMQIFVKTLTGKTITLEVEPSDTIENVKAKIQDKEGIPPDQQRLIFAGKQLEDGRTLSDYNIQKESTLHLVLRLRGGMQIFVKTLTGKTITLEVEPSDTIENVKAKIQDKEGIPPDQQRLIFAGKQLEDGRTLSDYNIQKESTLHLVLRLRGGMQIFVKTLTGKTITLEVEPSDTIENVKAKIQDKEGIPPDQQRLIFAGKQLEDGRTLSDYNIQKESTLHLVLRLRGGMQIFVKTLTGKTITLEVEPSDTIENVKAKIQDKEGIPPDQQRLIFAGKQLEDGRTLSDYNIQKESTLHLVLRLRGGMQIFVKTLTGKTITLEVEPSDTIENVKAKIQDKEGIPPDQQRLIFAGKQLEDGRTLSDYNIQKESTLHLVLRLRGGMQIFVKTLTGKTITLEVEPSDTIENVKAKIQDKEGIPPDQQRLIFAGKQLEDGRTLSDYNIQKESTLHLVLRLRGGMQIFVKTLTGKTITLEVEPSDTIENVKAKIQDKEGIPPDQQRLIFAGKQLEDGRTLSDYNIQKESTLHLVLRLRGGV

Protein	modification by the suicide probe Ub-VS (immunoblot)
B1	UCHL1^WT readily reacted with Ub-VS, nearing completion after 30 minutes
B2	UCHL5^WT was only partially modified at 30 minutes
